{"source": "paper PMC10123104", "proteins": {"B1": {"name": "ObgE (Escherichia coli K-12) (protein)", "chain": "MKFVDEASILVVAGDGGNGCVSFRREKYIPKGGPDGGDGGDGGDVWMEADENLNTLIDYRFEKSFRAERGQNGASRDCTGKRGKDVTIKVPVGTRVIDQGTGETMGDMTKHGQRLLVAKGGWHGLGNTRFKSSVNRTPRQKTNGTPGDKRELLLELMLLADVGMLGMPNAGKSTFIRAVSAAKPKVADYPFTTLVPSLGVVRMDNEKSFVVADIPGLIEGAAEGAGLGIRFLKHLERCRVLLHLIDIDPIDGTDPVENARIIISELEKYSQDLATKPRWLVFNKIDLLDKVEAEEKAKAIAEALGWEDKYYLISAASGLGVKDLCWDVMTFIIENPVVQAEEAKQPEKVEFMWDDYHRQQLEEIAEEDDEDWDDDWDEDDEEGVEFIYKR", "notes": "full length, N-terminally His6-tagged (pET28a), nucleotide-free after alkaline phosphatase treatment"}}, "substrate": "Nc1nc2c(ncn2[C@@H]2O[C@H](COP(=O)(O)OP(=O)(O)OP(=O)(O)O)[C@@H](O)[C@H]2O)c(=O)[nH]1", "test": "purified protein, by the assay type", "format": "biochemical", "method": "Nucleotides were detected at 254 nm. […] All measurements were performed in triplicate."}
{"protein": "B1", "values": [{"measurement": "Km", "value": 4, "unit": "µM"}]}
